The text below walks through data of publication PMC9317961, “Deafness-related protein PDZD7 forms complex with the C-terminal tail of FCHSD2” (Biochemical Journal, 2022).

Assay [1] concerns the target T1, PDZD7 PDZ3 (a.a. 842-946) (mouse, UniProt E9Q9W7 842-946).
T1 construct: As used in ITC; also called WT PDZD7 PDZ3; source: E. coli BL21 (DE3), purified (nickel-NTA, SEC); not shown: Trx (from the vector pET.32M.3C)
T1 sequence (looked up): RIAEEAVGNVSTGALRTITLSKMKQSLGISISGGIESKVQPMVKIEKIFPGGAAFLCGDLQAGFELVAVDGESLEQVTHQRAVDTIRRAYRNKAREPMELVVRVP
As to the kind of experiment: ITC; MicroCal iTC200, 25°C; ~500 μM protein in the syringe titrated into ~50 μM partner in the cell; one-site binding model. Conditions: both partners purified.

The target in a further assay is T2, Trx-tagged PDZD7 PDZ3 (mouse, UniProt E9Q9W7 842-946).
T2 construct: As used in SEC-MALS, thioredoxin tag kept; monomer by SEC-MALS; also called Trx-PDZD7 PDZ3; source: E. coli BL21 (DE3), purified (nickel-NTA, SEC)
T2 sequence (looked up): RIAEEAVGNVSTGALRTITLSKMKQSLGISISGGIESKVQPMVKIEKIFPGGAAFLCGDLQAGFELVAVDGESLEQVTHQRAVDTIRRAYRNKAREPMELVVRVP
Briefly: SEC-MALS; Superose 12 10/300 GL column, miniDAWN and Optilab detectors; ~300 μl of 50 μM protein loaded; Trx-tagged proteins alone and mixed. Conditions: both partners purified.

B1: FCHSD2 tail (a.a. 729-740) (peptide, UniProt Q3USJ8 729-740, looked up)
chain: TEKMEDVEITLV
notes: As used in ITC; also called WT FCHSD2 tail; source: E. coli BL21 (DE3), purified (nickel-NTA, SEC)
For B1, the Kd in assay [1] was ~1510 nM.

B2: Trx-tagged FCHSD2 tail (peptide, UniProt Q3USJ8 729-740, looked up)
chain: TEKMEDVEITLV
notes: FCHSD2, residues 729-740; As used in SEC-MALS, thioredoxin tag kept; monomer by SEC-MALS; also called Trx-FCHSD2 tail; source: E. coli BL21 (DE3), purified (nickel-NTA, SEC)
With B2, the “stoichiometry N” value in the assay with Trx-tagged PDZD7 PDZ3 came out at 1.
